Experimental data taken from patent US20120148607A1 (ARGEN X N V, published 2012).
Read-outs that look alike come from different tables or passages of the source. One block for each binder: values may come before it.

Assays:
[1] = target: T1, Decoy c-Met (extracellular domain of human c-Met) (human, UniProt P08581 25-932); test: SPR: mAb (0.5 µg/ml) kept 1 h at the given temperature, run over a CM-5 chip coupled with 15,000-17,000 RU Decoy c-Met; slope between 100 and 130 s at 30 µl/min in percent of the sample kept at 4 °C
T1 construct: extracellular domain; also called Decoy Met; monomeric Decoy Met
T1 sequence (P08581 25-932): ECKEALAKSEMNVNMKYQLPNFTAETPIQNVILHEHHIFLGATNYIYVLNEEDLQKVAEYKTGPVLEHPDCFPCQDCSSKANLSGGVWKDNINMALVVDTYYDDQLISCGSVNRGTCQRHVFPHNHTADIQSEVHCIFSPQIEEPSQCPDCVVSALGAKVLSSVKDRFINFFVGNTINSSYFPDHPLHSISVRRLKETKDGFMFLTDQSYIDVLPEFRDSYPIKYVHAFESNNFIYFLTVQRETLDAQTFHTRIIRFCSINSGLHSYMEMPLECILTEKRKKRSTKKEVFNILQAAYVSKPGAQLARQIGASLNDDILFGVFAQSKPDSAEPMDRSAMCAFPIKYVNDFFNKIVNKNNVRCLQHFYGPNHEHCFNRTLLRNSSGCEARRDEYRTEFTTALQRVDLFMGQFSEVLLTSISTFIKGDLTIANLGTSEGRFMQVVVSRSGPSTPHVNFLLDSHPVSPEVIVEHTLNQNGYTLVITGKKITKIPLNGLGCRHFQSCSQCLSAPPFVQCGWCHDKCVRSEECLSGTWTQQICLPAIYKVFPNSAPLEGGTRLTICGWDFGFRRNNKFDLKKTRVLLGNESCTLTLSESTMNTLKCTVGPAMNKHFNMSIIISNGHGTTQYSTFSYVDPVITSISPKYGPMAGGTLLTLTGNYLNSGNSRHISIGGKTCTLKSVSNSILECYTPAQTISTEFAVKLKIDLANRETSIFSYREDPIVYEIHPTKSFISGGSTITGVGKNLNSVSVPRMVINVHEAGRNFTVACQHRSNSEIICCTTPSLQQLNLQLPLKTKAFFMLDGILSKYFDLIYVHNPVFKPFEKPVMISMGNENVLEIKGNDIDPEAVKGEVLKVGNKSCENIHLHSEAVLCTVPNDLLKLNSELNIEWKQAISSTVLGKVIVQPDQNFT

[2] = target: T2, Rhesus (Maccaca mulatta, US20090191580-5) c-Met ECD (Rhesus (Maccaca mulatta)); test: binding ELISA, Rhesus c-Met ECD immobilised (1 µg/ml)
T2 construct: extracellular domain; also called Rhesus c-Met ECD; Rhesus ECD
Procedure: Cross reactivity to Rhesus (Maccaca mulatta, US20090191580_{—}5) c-Met ECD and mouse c-Met (R&D systems cat no: 527-ME) was performed in a binding ELISA. Rhesus ECD was immobilized in PBS (1 μg/ml) on a 96-well maxisorb plate and incubated at 4° C. over night. After blocking with 1% casein in PBS, the antibodies in dilutions starting with 10 μg/ml were added and allowed to bind for 1 h at room temperature. The plate was washed and a goat anti-human Fcγ antibody (Jackson) was added and incubated for 1 h at room temperature. After washing, TMB was added and the plate read at 620 nm

[3] = target: T1, Decoy c-Met (extracellular domain of …); test: binding ELISA, human c-Met (Decoy)
[4] = target: T3, c-Met SEMA ectodomain (human, UniProt P08581 27-515); test: ELISA: c-Met ectodomain coated at 1 µg/ml on maxisorb plate; mAb in three-fold dilutions from 1 µg/ml, 1 h RT; HRP-conjugated Protein A, TMB, OD 450
T3 construct: domain: SEMA; also called SEMA domain
T3 sequence (P08581 27-515): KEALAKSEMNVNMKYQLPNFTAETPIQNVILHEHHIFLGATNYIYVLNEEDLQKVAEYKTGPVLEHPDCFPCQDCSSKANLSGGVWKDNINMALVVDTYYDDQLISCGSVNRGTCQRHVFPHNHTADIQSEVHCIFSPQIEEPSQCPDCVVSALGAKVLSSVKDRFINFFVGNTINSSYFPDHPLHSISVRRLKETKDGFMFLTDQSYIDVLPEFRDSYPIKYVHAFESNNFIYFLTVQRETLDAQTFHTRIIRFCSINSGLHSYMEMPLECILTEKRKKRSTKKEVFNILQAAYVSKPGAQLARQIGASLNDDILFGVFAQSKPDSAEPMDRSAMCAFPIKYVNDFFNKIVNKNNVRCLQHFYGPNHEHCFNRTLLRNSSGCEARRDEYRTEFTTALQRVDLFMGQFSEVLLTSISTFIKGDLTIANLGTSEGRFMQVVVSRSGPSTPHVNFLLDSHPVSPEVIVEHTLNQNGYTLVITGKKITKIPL

[5] = target: T4, c-Met SEMA-PSI ectodomain (human, UniProt P08581 25-562, limits assumed); test: as above
T4 construct: domain: SEMA-PSI
T4 sequence (P08581 25-562 limits assumed): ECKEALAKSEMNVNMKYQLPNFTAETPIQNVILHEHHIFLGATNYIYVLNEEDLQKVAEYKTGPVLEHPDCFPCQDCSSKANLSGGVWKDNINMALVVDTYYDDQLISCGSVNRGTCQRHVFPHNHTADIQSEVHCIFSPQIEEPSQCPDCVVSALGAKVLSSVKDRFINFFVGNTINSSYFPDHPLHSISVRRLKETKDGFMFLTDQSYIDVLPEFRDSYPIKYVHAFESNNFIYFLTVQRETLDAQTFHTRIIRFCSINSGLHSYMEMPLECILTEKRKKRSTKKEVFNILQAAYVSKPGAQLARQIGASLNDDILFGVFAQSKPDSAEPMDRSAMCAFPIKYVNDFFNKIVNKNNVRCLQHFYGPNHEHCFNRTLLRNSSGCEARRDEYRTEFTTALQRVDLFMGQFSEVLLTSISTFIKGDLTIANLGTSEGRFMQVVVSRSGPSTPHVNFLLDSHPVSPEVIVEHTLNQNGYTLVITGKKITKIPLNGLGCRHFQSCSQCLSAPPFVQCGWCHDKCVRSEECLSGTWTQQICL

[6] = target: T1, Decoy c-Met (extracellular domain of …); test: as above
[7] = target: T5, recombinant dimeric c-Met (R&D systems, 358-MT/CF) (human, UniProt P08581 25-932); test: competition ELISA: recombinant dimeric c-Met (100 ng/ml) captured by coated mouse anti-His antibody; antibody dilutions 30 min, then 25 ng/ml N-terminally biotinylated HGF (the competitor); strep-HRP, TMB, 620 nm; percent competition against the controls
T5 construct: Bought product; also called Fc-Met; recombinant c-Met
T5 sequence (P08581 25-932 limits assumed): as the sequence (P08581 25-932) above
Procedure: Competition with N-terminally biotinylated HGF for binding to immobilized c-Met was performed using an ELISA-based competition assay. Five μg/ml mouse anti-His antibodies (Serotech) was immobilized on a maxisorb plate and, after blocking with 1% casein in PBS for 2 h, 100 ng/ml recombinant dimeric c-Met was added and incubated for 1 h at room temperature. After washing, dilutions of the antibodies were added and allowed to bind to the captured c-Met for 30 minutes, before 25 ng/ml N-terminally biotinylated HGF (R&D systems, 294-HGN/CF) was added. Biotinylated HGF was incubated at room temperature for 1 h before washing. Horseradish-conjugated streptavidin (strep-HRP) was added and incubated for an additional hour. TMB was added and the plate read at 620 nm. An isotype control (hIgG1λ) was included as a control as well as murine 5D5 antibody. Competition was expressed as percentage competition as compared to the controls (strep-HRP only or hIgG1λ) and plotted against the concentration of antibodies. An IC₅₀ was calculated using GraphPad Prism (Table 10). Antibodies 13E6 and 20A11 only displaced HGF partially (about 50%), which may be related to the epitope these two mAbs recognize on the c-Met.

[8] = target: T3, c-Met SEMA ectodomain; test: ELISA on immobilised c-Met ectodomains
[9] = target: T6, c-Met IPT3-4 ectodomain (human, UniProt P08581 742-932, limits assumed); test: ELISA on immobilised c-Met ectodomains
T6 construct: domain: IPT3-4
T6 sequence (P08581 742-932 limits assumed): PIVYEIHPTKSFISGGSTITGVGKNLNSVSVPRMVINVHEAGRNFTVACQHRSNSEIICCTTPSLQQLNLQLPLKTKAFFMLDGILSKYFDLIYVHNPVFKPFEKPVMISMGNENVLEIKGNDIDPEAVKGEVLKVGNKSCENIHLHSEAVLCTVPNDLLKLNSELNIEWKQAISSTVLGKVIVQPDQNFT

[10] = target: T7, c-Met SEMA-PSI-IPT1-2 ectodomain (human, UniProt P08581 25-741, limits assumed); test: ELISA on immobilised c-Met ectodomains
T7 construct: domain: SEMA-PSI-IPT1-2; also called IPT1-2 (as recognised domain)

[11] = target: T4, c-Met SEMA-PSI ectodomain; test: ELISA on immobilised c-Met ectodomains
[12] = target: T8, human c-Met ECD (aa 25-932) with His tag (human, UniProt P08581 25-932); test: ELISA: 200 ng of the c-Met ECD protein coated on maxisorb plates; mAb dilutions 1 h RT; HRP-conjugated goat anti-human antibody, TMB, OD 620 nm
T8 construct: range 25-932; Soluble protein from HEK293 cells; also called human c-Met (WT); not shown: His tag
T8 sequence (P08581 25-932 limits assumed): as the sequence (P08581 25-932) above

[13] = target: T1, Decoy c-Met (extracellular domain of …); test: ELISA: c-Met ectodomain coated at 1 µg/ml on maxisorb plate; mAb in three-fold dilutions from 1 µg/ml, 1 h RT; HRP-conjugated Protein A, TMB, OD 450; remark: listed apart in the source
[14] = target: T9, HMet (human c-Met of Table 16) (human, UniProt P08581 25-932, limits assumed); test: ELISA, 36C4 (2 µg/ml) immobilised, c-Met construct added, streptavidin-HRP
T9 construct: Label not explained in the text; not shown: Flag and strep tag
T9 sequence (P08581 25-932 limits assumed): as the sequence (P08581 25-932) above
Description: (§1) An ELISA was run to investigate the binding of the mAbs to the different chimeras.

[15] = target: T8, human c-Met ECD (aa 25-932) with His tag; test: ELISA: 200 ng of the c-Met ECD protein coated on maxisorb plates; mAb dilutions 1 h RT; HRP-conjugated goat anti-human antibody, TMB, OD 620 nm; remark: listed apart in the source
[16] = target: T10, human/llama-IPT chimeric c-Met ECD (human; Llama glama, UniProt P08581 25-567); test: as above
T10 construct: range 25-567;range 568-932; Human c-Met in which IPT1-4 is exchanged for the llama IPT1-4; also called human/llama IPT1-4; construct with the human SEMA-PSI; not shown: His tag
T10 sequence (P08581 25-567, change not shown): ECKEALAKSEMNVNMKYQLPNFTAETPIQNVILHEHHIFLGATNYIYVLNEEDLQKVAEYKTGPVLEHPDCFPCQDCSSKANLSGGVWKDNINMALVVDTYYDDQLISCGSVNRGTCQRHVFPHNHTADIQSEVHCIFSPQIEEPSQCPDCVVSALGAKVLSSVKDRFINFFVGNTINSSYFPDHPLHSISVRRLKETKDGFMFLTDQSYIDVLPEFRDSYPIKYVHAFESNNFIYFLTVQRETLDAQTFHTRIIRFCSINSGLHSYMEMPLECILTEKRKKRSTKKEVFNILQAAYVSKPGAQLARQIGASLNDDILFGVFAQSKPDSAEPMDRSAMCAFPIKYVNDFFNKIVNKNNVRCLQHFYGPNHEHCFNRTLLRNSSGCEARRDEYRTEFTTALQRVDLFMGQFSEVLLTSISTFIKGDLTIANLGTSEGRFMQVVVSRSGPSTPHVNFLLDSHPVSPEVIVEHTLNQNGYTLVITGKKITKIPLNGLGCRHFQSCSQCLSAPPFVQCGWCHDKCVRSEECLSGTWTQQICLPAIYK

[17] = target: T11, LS1 (aa1-98) llama-human c-Met chimera (Llama glama; human, UniProt P08581 123-933); test: ELISA, 36C4 (2 µg/ml) immobilised, chimera added, streptavidin-HRP
T11 construct: range 1-98 (mature numbering, E=1);range 99-909 (mature numbering, E=1; derived); not shown: Flag and strep tag
T11 sequence (P08581 123-933, change not shown): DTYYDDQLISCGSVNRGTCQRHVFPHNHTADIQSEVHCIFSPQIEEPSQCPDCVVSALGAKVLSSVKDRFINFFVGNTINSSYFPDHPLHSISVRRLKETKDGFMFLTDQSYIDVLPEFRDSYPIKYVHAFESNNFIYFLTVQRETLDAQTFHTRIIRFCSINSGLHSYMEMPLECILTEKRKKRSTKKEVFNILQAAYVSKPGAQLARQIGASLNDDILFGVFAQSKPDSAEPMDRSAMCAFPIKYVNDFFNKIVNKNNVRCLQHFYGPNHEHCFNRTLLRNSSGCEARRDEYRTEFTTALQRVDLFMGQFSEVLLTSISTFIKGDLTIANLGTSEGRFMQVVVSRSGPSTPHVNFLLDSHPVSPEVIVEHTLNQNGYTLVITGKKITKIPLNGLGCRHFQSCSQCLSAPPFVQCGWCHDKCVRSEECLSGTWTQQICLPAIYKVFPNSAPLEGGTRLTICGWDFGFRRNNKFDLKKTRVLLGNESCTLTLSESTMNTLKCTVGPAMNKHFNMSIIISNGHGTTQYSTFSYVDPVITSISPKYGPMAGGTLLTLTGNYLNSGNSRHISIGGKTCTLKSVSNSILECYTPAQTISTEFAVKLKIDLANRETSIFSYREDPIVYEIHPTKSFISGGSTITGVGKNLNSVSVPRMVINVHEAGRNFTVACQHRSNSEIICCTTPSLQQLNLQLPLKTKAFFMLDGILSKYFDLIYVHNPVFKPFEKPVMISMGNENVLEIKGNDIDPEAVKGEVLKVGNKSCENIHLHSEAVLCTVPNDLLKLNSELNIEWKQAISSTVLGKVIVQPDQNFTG
Description: as §1

[18] = target: T12, LI11 (aa634-909) llama-human c-Met chimera (human; Llama glama, UniProt P08581 25-657); test: as above
T12 construct: range 1-633 (mature numbering, E=1; derived);range 634-909 (mature numbering, E=1); also called Ll11; not shown: Flag and strep tag
Description: as §1

[19] = target: T13, LP7* (aa523-909) llama-human c-Met chimera (human; Llama glama, UniProt P08581 25-546); test: as above
T13 construct: range 1-522 (mature numbering, E=1; derived);range 523-909 (mature numbering, E=1); not explained further; not shown: Flag and strep tag
Description: as §1

[20] = target: T14, LI8 (aa540-909) llama-human c-Met chimera (human; Llama glama, UniProt P08581 25-563); test: as above
T14 construct: range 1-539 (mature numbering, E=1; derived);range 540-909 (mature numbering, E=1); also called Ll8; not shown: Flag and strep tag
T14 sequence (P08581 25-563, change not shown): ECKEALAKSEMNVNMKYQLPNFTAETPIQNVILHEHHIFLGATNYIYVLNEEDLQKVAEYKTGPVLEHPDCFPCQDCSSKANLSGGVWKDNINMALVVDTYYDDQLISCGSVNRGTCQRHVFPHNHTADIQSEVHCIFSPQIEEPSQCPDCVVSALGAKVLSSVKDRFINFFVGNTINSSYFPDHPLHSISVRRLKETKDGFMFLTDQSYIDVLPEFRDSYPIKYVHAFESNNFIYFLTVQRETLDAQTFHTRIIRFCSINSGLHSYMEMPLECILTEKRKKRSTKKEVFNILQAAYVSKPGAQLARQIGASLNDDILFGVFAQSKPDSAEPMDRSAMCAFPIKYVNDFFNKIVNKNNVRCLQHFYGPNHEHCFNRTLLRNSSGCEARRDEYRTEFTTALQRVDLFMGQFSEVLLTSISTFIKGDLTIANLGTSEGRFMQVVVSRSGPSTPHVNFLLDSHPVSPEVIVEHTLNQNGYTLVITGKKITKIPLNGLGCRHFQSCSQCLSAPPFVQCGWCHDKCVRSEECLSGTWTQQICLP
Description: as §1

[21] = target: T15, LI10 (aa608-909) llama-human c-Met chimera (human; Llama glama, UniProt P08581 25-631); test: as above
T15 construct: range 1-607 (mature numbering, E=1; derived);range 608-909 (mature numbering, E=1); also called Ll10; not shown: Flag and strep tag
Description: as §1

[22] = target: T16, LI9 (aa572-909) llama-human c-Met chimera (human; Llama glama, UniProt P08581 25-595); test: as above
T16 construct: range 1-571 (mature numbering, E=1; derived);range 572-909 (mature numbering, E=1); also called Ll9; not shown: Flag and strep tag
Description: as §1

[23] = target: T17, LP6 (aa497-909) llama-human c-Met chimera (human; Llama glama, UniProt P08581 25-520); test: as above
T17 construct: range 1-496 (mature numbering, E=1; derived);range 497-909 (mature numbering, E=1); not shown: Flag and strep tag
T17 sequence (P08581 25-520, change not shown): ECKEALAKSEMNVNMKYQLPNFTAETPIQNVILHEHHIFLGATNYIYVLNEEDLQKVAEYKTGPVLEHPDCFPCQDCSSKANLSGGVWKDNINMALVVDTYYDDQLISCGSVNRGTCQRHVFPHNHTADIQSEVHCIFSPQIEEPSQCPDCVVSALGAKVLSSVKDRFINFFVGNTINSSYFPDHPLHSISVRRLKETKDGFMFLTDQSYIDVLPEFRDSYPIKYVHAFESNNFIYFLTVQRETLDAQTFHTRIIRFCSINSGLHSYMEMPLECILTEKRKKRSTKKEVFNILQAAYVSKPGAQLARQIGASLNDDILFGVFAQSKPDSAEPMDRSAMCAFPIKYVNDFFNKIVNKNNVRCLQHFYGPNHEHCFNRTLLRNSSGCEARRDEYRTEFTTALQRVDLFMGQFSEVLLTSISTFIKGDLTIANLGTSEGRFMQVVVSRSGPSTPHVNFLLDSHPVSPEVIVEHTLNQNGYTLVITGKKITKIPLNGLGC
Description: as §1

- binding result [1]: binds
B1: 56F3 (antibody, V domains shown)
VH: EVQLVQPGAEVKKPGASVKVSCKASGYIFTMNSIDWVRQAPGQGLEWMGRIDPEEGGTKYAQKFQGRVTMTADTSTSTAYMELSSLRSDDTAVYYCARVDDYYLGYDYWGQGTQVTVSS
VL: DIVMTQSPDSLAASLGERVTINCKSSQSVLFSSNQKNYLAWYQQRPGQSPKLLIYWASIRESGVPDRFSGSGSGTDFTLTISSLQAEDVAVYYCQQGYSFPYSFGSGTRLEIK
notes: also called germlined variant of 48A2

- EC50 [2]: 0.13 nM
- EC50 [3]: 0.14 nM
- binding result [4]: no binding (tested: 1000 ng/ml)
- binding result [5]: no binding (tested: 1000 ng/ml)
- EC50 (read off the curve) [6]: ~0.03 µg/mL
- IC50 (read off the curve) [7]: ~0.08 nM
B2: 40B8 mAb (antibody, V domains shown)
VH: EVQLVQPGAELRNPGASVKVSCKASGYTFTNYVIDWVRQAPGQGLEWMGRIDPENGGTRYAQKFQGRVTFTADTSTSTAYVELSNLRSEDTAVYYCARLEDYELAYDYWGQGTQVTVSS
VL: DIVMTQTPSSVTASAGEKVTINCKSSQSVLLSSNQKNYLAWYQQRLGQSPRLLIYWASTRESGVPDRFSGSGSTTDFTLTISSFQPEDAAVYYCQQGVSFPLTFGQGTKVELK

- binding result [8]: no binding (tested: 1 µg/ml)
- binding result [9]: no binding (tested: 1 µg/ml)
- binding result [10]: no binding (tested: 1 µg/ml)
- binding result [11]: no binding (tested: 1 µg/ml)
- EC50 [2]: 0.19 nM
- EC50 [3]: 0.19 nM
- EC50 (read off the curve) [12]: ~1 nM
B3: 13E6 mAb (antibody, V domains shown)
VH: QVQLQESGGDLVQPGGSLRLSCAASGFTFDDYVMNWVRQAPGKGLEWISAINWNGGSTYYAESMKGRFTISRDNAKNTLYLQMYSLQSDDTAVYYCVKDTVVSGNGYWGQGTQVTVSS
VL: QSVLTQPPSVSGTLGKTVTISCAGTSSDIGDYNYVSWYQQLPGTAPKLLIYDVNKRASGIPDRFSGSKSGNTASLSISGLQSEDEADYYCASYRSRNDYAFGGGTKLTVL

- EC50 [2]: 0.14 nM
- EC50 [3]: 0.13 nM
- EC50 (read off the curve) [13]: ~0.02 µg/mL
- EC50 [14]: 0.06 µg/mL
- EC50 (read off the curve) [15]: ~0.6 nM
- EC50 (read off the curve) [16]: ~0.6 nM
- EC50 [17]: 0.068 µg/mL
- EC50 [18]: 0.045 µg/mL
- EC50 [19]: 0.055 µg/mL
- EC50 [20]: 0.047 µg/mL
- EC50 [21]: 0.047 µg/mL
- EC50 [22]: 0.047 µg/mL
- EC50 [23]: 0.05 µg/mL
- IC50 (read off the curve) [7]: ~0.2 nM
B4: 36C4 mAb (antibody, V domains shown)
VH: QVQLVESGPGLVKPSQTLSLTCAVSGGSITTNYYYWSWIRQSPGKGLEWMGVIAYDGSTDYSPSLKSRTSISRDTSKNQFSLQLSSVTPEDTAVYYCARDVRVIATGWATANALDAWGQGTLVTVSS
VL: QSVLTQPPSVSGSPGKTVTISCAGTSSDVGYGNYVSWYQQLPGTAPKLLIFAVSYRASGIPDRFSGSKSGNTAFLTISGLQSEDEADYYCASYRSSNNAAVFGGGTHLTVL
notes: also called SIMPLE antibody 36C4
